Experimental findings from IntAct's records for PubMed 30814734 are described below.

Sequences and labels used below:
B1: BTB/POZ domain-containing protein KCTD16 (Homo sapiens), Q68DU8 (parent)
chain: MALSGNCSRYYPREQGSAVPNSFPEVVELNVGGQVYFTRHSTLISIPHSLLWKMFSPKRDTANDLAKDSKGRFFIDRDGFLFRYILDYLRDRQVVLPDHFPEKGRLKREAEYFQLPDLVKLLTPDEIKQSPDEFCHSDFEDASQGSDTRICPPSSLLPADRKWGFITVGYRGSCTLGREGQADAKFRRVPRILVCGRISLAKEVFGETLNESRDPDRAPERYTSRFYLKFKHLERAFDMLSECGFHMVACNSSVTASFINQYTDDKIWSSYTEYVFYREPSRWSPSHCDCCCKNGKGDKEGESGTSCNDLSTSSCDSQSEASSPQETVICGPVTRQTNIQTLDRPIKKGPVQLIQQSEMRRKSDLLRTLTSGSRESNMSSKKKAVKEKLSIEEELEKCIQDFLKIKIPDRFPERKHPWQSELLRKYHL
partner: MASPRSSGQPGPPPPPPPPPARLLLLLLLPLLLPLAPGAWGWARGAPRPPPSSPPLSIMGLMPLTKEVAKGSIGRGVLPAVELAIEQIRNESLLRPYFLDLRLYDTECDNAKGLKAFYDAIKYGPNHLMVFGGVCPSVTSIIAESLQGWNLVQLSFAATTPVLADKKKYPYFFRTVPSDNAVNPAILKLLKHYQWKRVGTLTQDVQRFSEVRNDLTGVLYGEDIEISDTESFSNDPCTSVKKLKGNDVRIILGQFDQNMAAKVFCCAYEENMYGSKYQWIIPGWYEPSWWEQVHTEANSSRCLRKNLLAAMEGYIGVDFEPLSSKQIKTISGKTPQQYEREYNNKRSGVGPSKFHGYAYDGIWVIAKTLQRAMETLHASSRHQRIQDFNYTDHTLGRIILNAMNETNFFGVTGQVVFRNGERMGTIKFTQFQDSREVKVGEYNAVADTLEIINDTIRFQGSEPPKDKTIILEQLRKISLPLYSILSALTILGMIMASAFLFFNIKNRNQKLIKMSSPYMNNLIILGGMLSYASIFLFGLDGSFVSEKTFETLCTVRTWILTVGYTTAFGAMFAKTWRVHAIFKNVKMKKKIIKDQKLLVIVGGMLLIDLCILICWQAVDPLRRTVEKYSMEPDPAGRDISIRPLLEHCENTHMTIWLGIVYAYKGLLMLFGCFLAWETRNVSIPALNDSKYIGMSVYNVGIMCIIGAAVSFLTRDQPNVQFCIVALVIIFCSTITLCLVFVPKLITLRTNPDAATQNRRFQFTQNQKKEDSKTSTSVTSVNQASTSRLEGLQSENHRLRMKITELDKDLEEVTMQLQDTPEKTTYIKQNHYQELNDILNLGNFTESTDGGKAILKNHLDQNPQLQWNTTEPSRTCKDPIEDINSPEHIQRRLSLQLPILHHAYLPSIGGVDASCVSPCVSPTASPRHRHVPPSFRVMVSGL

In this assay the parent is B1. The conditions noted are these: with gabr2_human GABBR2, O75899.
On to F80A, for which the “effect of a mutation on the interaction” value was “disrupting interaction strength”.
